How the values were obtained:
[1] = biological target: T1, human CTLA-4 protein (Sino Biological), soluble (human, UniProt P16410 36-162, limits assumed); experiment: SPR (Biacore 3000); mAb captured by immobilised anti-human Fc, soluble human CTLA-4 injected (1.6 to 50 nM)
T1 construct: Analyte of the Biacore experiment; also called soluble human CTLA-4

cmCTLA-4 = biological target: T2, cmCTLA-4 (Macaca fascicularis, UniProt G7PL88); experiment: ELISA, luminescence: antigen coated, antibody titrated [contd.) E]
T2 construct: recombinant protein coated for ELISA; also called cynomolgus CTLA-4; cynomolgus monkey CTLA-4

[2] = biological target: T3, human CTLA4-Fc (R&D Systems) (human, UniProt P16410 36-161); experiment: by the legend: binding to immobilized recombinant hCTLA-4 protein as in FIG. 1E; the y axis reads 'IgG binding (geomean; x10^3)' [contd.) G]
T3 construct: extracellular domain; Bought reagent; also called rhCTLA-4-Fc; hCTLA-4; not shown: Fc part of the bought fusion protein; not described

[3] = biological target: T1, human CTLA-4 protein (Sino Biological), …; experiment: SPR (Biacore): antibody at 5 nM captured on immobilized anti-human Fc, human CTLA-4 protein injected at rising concentrations [contd.) C, upper panel]
[4] = biological target: T3, human CTLA4-Fc (R&D Systems); experiment: ligand-blocking ELISA: human CTLA4-Fc coated, antibody titrated, His-tagged rhCD86 added and detected with anti-His-HRP [contd.) G, panel hCD86]
[5] = biological target: T3, human CTLA4-Fc (R&D Systems); experiment: ELISA, luminescence: antigen coated, antibody titrated [contd.) E]
[6] = biological target: T4, human CD28-Fc (R&D Systems) (human, UniProt P10747 19-152); experiment: as above
T4 construct: Bought reagent; also called human homologue CD28; not shown: Fc part of the bought fusion protein; not described

[7] = biological target: T5, mouse CTLA4-Fc (Sino Biological) (mouse, UniProt P09793 36-162, limits assumed); experiment: as above
T5 construct: Bought reagent; also called mouse CTLA-4 protein; recombinant CTLA-4; not shown: Fc part of the bought fusion protein; not described

[8] = biological target: T3, human CTLA4-Fc (R&D Systems); experiment: by the legend: binding to immobilized recombinant hCTLA-4 protein as in FIG. 1E; 4-E03 purified from BT-001-infected MIA PaCa-2 cells; the y axis reads 'IgG binding (geomean; x10^3)' [contd.) G]
[9] = biological target: T3, human CTLA4-Fc (R&D Systems); experiment: ligand-blocking ELISA: human CTLA4-Fc coated, antibody titrated, His-tagged rhCD80 added and detected with anti-His-HRP [contd.) G, panel hCD80]
[10] = biological target: T5, mouse CTLA4-Fc (Sino Biological); experiment: ELISA, luminescence: mouse CTLA4-Fc coated, 5-B07 mIgG2a titrated in 3-fold steps [contd.) E]
[11] = biological target: T5, mouse CTLA4-Fc (Sino Biological); experiment: ligand-blocking ELISA: mouse CTLA4-Fc coated, antibody titrated, His-tagged mouse CD80 added and detected with anti-His-HRP [contd.) J, panel mCD80]
[12] = biological target: T5, mouse CTLA4-Fc (Sino Biological); experiment: ligand-blocking ELISA: mouse CTLA4-Fc coated, antibody titrated, His-tagged mouse CD86 added and detected with anti-His-HRP [contd.) J, panel mCD86]
[13] = biological target: T6, mouse CTLA-4 on transfected cells (mouse, UniProt P09793 36-223); experiment: flow cytometry on mCTLA-4-transfected cells, antibody titrated [contd.) I]
T6 construct: whole, on cells; also called mCTLA-4-transfected cells; mouse CTLA-4 transfected CHO cells

T3 sequence (P16410 36-161): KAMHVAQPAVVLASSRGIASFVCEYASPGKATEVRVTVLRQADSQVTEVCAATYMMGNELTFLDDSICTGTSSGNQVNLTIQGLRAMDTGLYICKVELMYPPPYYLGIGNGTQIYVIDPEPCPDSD
T1 sequence (P16410 36-162 limits assumed): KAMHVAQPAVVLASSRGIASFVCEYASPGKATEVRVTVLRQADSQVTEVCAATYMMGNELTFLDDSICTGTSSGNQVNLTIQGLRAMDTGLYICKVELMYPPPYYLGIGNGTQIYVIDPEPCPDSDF
T2 sequence (G7PL88 entry or part of it): as the sequence (P16410 36-161) above, with S14N, I18T, L106M counted along it

B1: 4-E03 hIgG1 (anti-human CTLA-4, human IgG1) (antibody, V domains shown)
VH: EVQLLESGGGLVQPGGSLRLSCAASGFTFSDYYMSWVRQAPGKGLEWVSGISWSSRDKGYADSVKGRFTISRDNSKNTLYLQMNSLRAEDTAVYYCTTDLARYWGQGTLVTVSS
VL: QSVLTQPPSASGTPGQRVTISCTGSSSNIGAGYDVHWYQQLPGTAPKLLIYGNDNRPSGVPDRFSGSKSGTSASLAISGLRSEDEADYYCAVWDDSLNGVVFGGGTKLTVLG
notes: Human IgG1 lambda, recombinant (HEK 293 EBNA); also called 4-E03 IgG1; anti-hCTLA-4 (4-E03)
[1]
  Kd: 0.6 nM
cmCTLA-4
  EC50 (read off the curve): ~0.3 nM
[2]
  EC50 (read off the curve): ~6 nM
[3]
  Kd: 0.4 nM
[4]
  IC50 (read off the curve): ~0.4 nM
[5]
  EC50 (read off the curve): ~0.3 nM
[6]
  binding result: no binding (tested: about 20 nM)
[7]
  binding result: binds
[8]
  EC50 (read off the curve): ~4 nM
[9]
  IC50 (read off the curve): ~1 nM

B2: 2-C06 (anti-human CTLA-4 antibody clone) (antibody, human IgG1, V domains shown)
VH: EVQLLESGGGLVQPGGSLRLSCAASGFTFSSYAMSWVRQAPGKGLEWVSGISGSGGYIHYADSVKGRFTISRDNSKNTLYLQMNSLRAEDTAVYYCATYSSGLHDAFDIWGQGTLVTVSS
VL: QSVLTQPPSASGTPGQRVTISCTGSSSNIGAGYDVHWYQQLPGTAPKLLIYDNNKRPSGVPDRFSGSKSGTSASLAISGLRSEDEADYYCAAWDDSLNGWVFGGGTKLTVLG
notes: Tested as human IgG1 (lambda light chain)
[4]
  IC50 (read off the curve): ~0.4 nM
[9]
  IC50 (read off the curve): ~1 nM

B3: 5-B07 mIgG2a (anti-mouse CTLA-4, mouse IgG2a) (antibody, V domains shown)
VH: EVQLLESGGGLVQPGGSLRLSCAASGFTFSSYSMNWVRQAPGKGLEWVSAISGSGGSTYYADSVKGRFTISRDNSKNTLYLQMNSLRAEDTAVYYCARDRVEMNQWLADWGQGTLVTVSS
VL: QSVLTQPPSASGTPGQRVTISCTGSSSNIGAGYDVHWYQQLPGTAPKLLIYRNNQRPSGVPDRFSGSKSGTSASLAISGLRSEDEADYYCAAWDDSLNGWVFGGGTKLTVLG
notes: The protein in the assay lacks the signal peptide; also called anti-mCTLA-4 (5-B07); mouse surrogate antibody 5-B07 mIgG2a
[10]
  EC50 (read off the curve): ~0.7 nM
[11]
  IC50 (read off the curve): ~2 nM
[12]
  IC50 (read off the curve): ~0.6 nM
[13]
  EC50 (read off the curve): ~0.8 µg/mL

B4: ipilimumab (antibody, V domains shown)
VH: QVQLVESGGGVVQPGRSLRLSCAASGFTFSSYTMHWVRQAPGKGLEWVTFISYDGNNKYYADSVKGRFTISRDNSKNTLYLQMNSLRAEDTAIYYCARTGWLGPFDYWGQGTLVTVSS
VL: not shown
cmCTLA-4
  EC50 (read off the curve): ~0.2 nM
